# Results: the Human Domainome abundance scans (Beltran et al. 2025)
# ± gives the uncertainty stated by the source.
# B1: Peroxisome proliferator-activated receptor delta, residues 71 to 145; numbered along this chain, Q03181 (parent)
# chain: NMECRVCGDKASGFHYGVHACEGCKGFFRRTIRMKLEYEKCERSCKIQKKNRNKCQYCRFQKCLALGMSHNAIRF
# Variants of: B1
# Assay: abundance fitness (aPCA) (normalised: wild type 0, dead -1); higher = more abundant; growth selection in yeast, the domain comes from the species named
# Conditions: Homo sapiens
row,Variant,abundance fitness
1,S69R,-0.162 ± 0.042
2,Q61P,-0.666 ± 0.12
3,E3K,-0.089 ± 0.057
4,E37G,-0.319 ± 0.044
5,S69P,-0.461 ± 0.092
6,A11Q,-0.546 ± 0.096
7,I47C,-0.51 ± 0.062
8,K54L,-0.046 ± 0.039
9,S12I,-0.121 ± 0.11
10,R43T,-0.161 ± 0.062
11,F60T,-0.549 ± 0.1
12,N53M,-0.067 ± 0.052
13,V6C,-0.873 ± 0.19
14,R52V,0.07 ± 0.038
15,V6R,-0.839 ± 0.072
16,E39L,-0.229 ± 0.041
17,F75I,-0.023 ± 0.09
18,C24Q,-0.912 ± 0.2
19,H15R,-0.595 ± 0.057
20,G17W,-0.918 ± 0.13
21,N1W,-0.593 ± 0.12
22,E22C,-0.258 ± 0.076
23,F75M,-0.192 ± 0.12
24,F75P,0.152 ± 0.057

row,Variant,abundance fitness
1,C58K,-0.825 ± 0.13
2,G67A,-0.411 ± 0.07
3,N53Q,-0.152 ± 0.064
4,R29W,0.164 ± 0.045
5,I47R,-0.502 ± 0.034
6,H19C,0.014 ± 0.058
7,E3N,-0.079 ± 0.068
8,R29I,0.132 ± 0.065
9,C24I,-0.464 ± 0.13
10,G17T,-0.567 ± 0.077
11,A72W,-0.353 ± 0.061
12,R59L,0.098 ± 0.035
13,G8D,-0.434 ± 0.1
14,E37N,0.014 ± 0.084
15,I73A,0.202 ± 0.038
16,S12F,-0.115 ± 0.086
17,K46L,0.022 ± 0.033
18,N71M,-0.394 ± 0.081
19,Q61V,-0.243 ± 0.039
20,L64T,-0.288 ± 0.065
21,L64I,-0.037 ± 0.07
22,F27M,-1.02 ± 0.27
23,V6H,-0.914 ± 0.32
24,N53F,-0.083 ± 0.092

row,Variant,abundance fitness
1,T31R,-0.778 ± 0.072
2,C58I,-0.82 ± 0.31
3,R59S,-0.928 ± 0.13
4,E42K,-0.209 ± 0.063
5,L66P,-0.681 ± 0.13
6,A72S,0.052 ± 0.04
7,A65C,-0.295 ± 0.083
8,L66A,-0.077 ± 0.048
9,R59A,-0.459 ± 0.062
10,N51S,-0.052 ± 0.048
11,A65K,-0.073 ± 0.048
12,G13Q,-0.322 ± 0.077
13,G26P,-1.02 ± 0.18
14,N71A,-0.036 ± 0.045
15,A20M,-0.456 ± 0.13
16,F14G,-0.299 ± 0.039
17,M34P,-0.602 ± 0.12
18,I32E,-0.531 ± 0.12
19,R52F,-0.155 ± 0.12
20,V18F,-0.527 ± 0.16
21,G8W,-0.812 ± 0.13
22,A11P,-0.197 ± 0.065
23,A11S,-0.091 ± 0.045
24,T31E,-0.89 ± 0.17

row,Variant,abundance fitness
1,E42W,-0.295 ± 0.049
2,G17M,-0.158 ± 0.076
3,T31C,-0.726 ± 0.14
4,A72C,-0.126 ± 0.063
5,K35T,-0.272 ± 0.055
6,F60H,-0.528 ± 0.17
7,F28T,-0.909 ± 0.18
8,M34W,-0.063 ± 0.054
9,H70D,0.394 ± 0.1
10,C7A,-0.66 ± 0.11
11,E39T,-0.052 ± 0.045
12,S44V,-0.086 ± 0.039
13,K35A,-0.054 ± 0.042
14,N71E,0.142 ± 0.048
15,E3Y,-0.182 ± 0.086
16,K49L,0.066 ± 0.26
17,C55G,-0.807 ± 0.057
18,E22Q,-0.332 ± 0.079
19,G26W,-0.174 ± 0.048
20,C7N,-0.412 ± 0.11
21,L36E,-0.109 ± 0.055
22,A72H,0.047 ± 0.069
23,G67K,-0.407 ± 0.091
24,K54D,-0.02 ± 0.063

row,Variant,abundance fitness
1,A20V,-0.077 ± 0.045
2,I73D,0.119 ± 0.055
3,M2D,-0.056 ± 0.079
4,L66R,-0.315 ± 0.046
5,G26F,-0.125 ± 0.083
6,K62T,-0.234 ± 0.063
7,C21R,-0.865 ± 0.09
8,R43Q,0.111 ± 0.051
9,A72M,0.019 ± 0.059
10,G17Q,-0.248 ± 0.061
11,R43I,-0.349 ± 0.13
12,H15E,-0.025 ± 0.045
13,S44D,0.055 ± 0.056
14,G67V,-0.673 ± 0.075
15,F27G,-0.789 ± 0.076
16,K50C,-0.164 ± 0.066
17,Y57G,-0.746 ± 0.085
18,R5I,-0.176 ± 0.067
19,R59E,-0.933 ± 0.16
20,G13S,-0.212 ± 0.048
21,C21M,-0.912 ± 0.26
22,F27Y,-1.06 ± 0.31
23,M68L,-0.725 ± 0.089
24,E42C,-0.394 ± 0.077

row,Variant,abundance fitness
1,L66S,0.03 ± 0.039
2,V6N,-0.624 ± 0.17
3,L66Q,0.014 ± 0.056
4,K46A,0.007 ± 0.034
5,K49T,0.023 ± 0.18
6,G17S,-0.448 ± 0.056
7,H15V,-0.238 ± 0.043
8,K62I,-0.245 ± 0.099
9,I47F,-0.246 ± 0.074
10,T31F,-0.406 ± 0.15
11,Q56R,-0.227 ± 0.037
12,A65H,-0.288 ± 0.089
13,H15I,-0.154 ± 0.076
14,C7L,-0.782 ± 0.089
15,K40H,0.08 ± 0.096
16,K35H,-0.169 ± 0.11
17,K10L,-0.018 ± 0.039
18,G17K,-0.861 ± 0.17
19,R5H,-0.257 ± 0.1
20,K25V,0.109 ± 0.037
21,H19S,0.046 ± 0.037
22,E3W,-0.176 ± 0.054
23,K50P,-0.089 ± 0.071
24,A72E,0.122 ± 0.042

row,Variant,abundance fitness
1,C58E,-0.925 ± 0.12
2,L36Q,-0.222 ± 0.059
3,F14Y,0.038 ± 0.063
4,Y38A,-0.738 ± 0.079
5,F75W,0.176 ± 0.12
6,R74Q,0.284 ± 0.06
7,C55W,-0.858 ± 0.087
8,S12W,-0.579 ± 0.079
9,S12T,-0.06 ± 0.048
10,E39I,-0.191 ± 0.077
11,G13V,-0.353 ± 0.049
12,R74P,0.151 ± 0.047
13,C45G,-0.787 ± 0.054
14,C63M,-0.063 ± 0.06
15,F60L,-0.027 ± 0.039
16,C41S,-0.945 ± 0.23
17,R29D,0.131 ± 0.056
18,F75D,0.285 ± 0.09
19,A72T,-0.248 ± 0.065
20,K46P,0.037 ± 0.044
21,I73T,0.184 ± 0.041
22,K49G,0.202 ± 0.13
23,F14I,0.002 ± 0.064
